Numbering of substitutions follows the chain as printed. Names may count otherwise.
T1: PUF4 RNA-binding domain (Saccharomyces cerevisiae, UniProt P25339 537-888)
T1 sequence: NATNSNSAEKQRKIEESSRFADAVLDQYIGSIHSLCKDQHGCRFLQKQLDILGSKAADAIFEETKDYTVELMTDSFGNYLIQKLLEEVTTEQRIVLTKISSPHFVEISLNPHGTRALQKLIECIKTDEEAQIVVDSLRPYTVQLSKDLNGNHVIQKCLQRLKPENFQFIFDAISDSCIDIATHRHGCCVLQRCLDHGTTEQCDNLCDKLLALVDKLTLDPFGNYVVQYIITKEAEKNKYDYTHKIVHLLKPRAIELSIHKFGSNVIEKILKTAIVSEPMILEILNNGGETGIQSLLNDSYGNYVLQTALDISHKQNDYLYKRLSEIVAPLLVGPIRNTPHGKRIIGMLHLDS

B1: Ib_S4_P5E.1_K5.1_C5.1_H5.1_[A4C]_A5.1_[T5C]_F5.1_T5.1 (ssRNA)
RNA: UUUGACAACUGAUCGUUCUUUCUUGUCCUAUUAUUCUUUCUCGAUCAGUUGUCUUU
B2: Ia_S4_P4E.1_K4.1_C4.1_H4.1_A4.1_[T7C]_F4.1_T4.1 (ssRNA)
RNA: UUUGACAACUGAUCGUUCUUUCUUGUAUACUAUUCUUUCUCGAUCAGUUGUCUUU
B3: Ie_S4_P4E.1_K4.1_C4.1_H4.1_[+3C]_A4.1_F4.1_T4.1 (ssRNA)
RNA: B1 RNA with C28A
B4: Ie_S4_P4E.1_K4.1_C4.1_H4.1_[+3T]_A4.1_F4.1_T4.1 (ssRNA)
RNA: B1 RNA with C27U, C28A
B5: Ib_S4_P5E.1_K5.1_C5.1_H5.1_[A4T]_A5.1_[T6A]_F5.1_T5.1 (ssRNA)
RNA: B1 RNA with C27U, C28U, U29A
B6: Ib_S4_P5E.1_K5.1_C5.1_H5.1_[A4C]_A5.1_[A7G]_F5.1_T5.1 (ssRNA)
RNA: B1 RNA with C28U, A30G
B7: Ib_S4_P5E.1_K5.1_C5.1_H5.1_[A4C]_A5.1_[A7C]_F5.1_T5.1 (ssRNA)
RNA: B1 RNA with C28U, A30C
B8: Ib_S4_P5E.1_K5.1_C5.1_H5.1_A5.1_[T5C]_[T6C]_F5.1_T5.1 (ssRNA)
RNA: B1 RNA with C27A, U29C
B9: Ib_S4_P5E.1_K5.1_C5.1_H5.1_A5.1_[T5C]_[T6A]_F5.1_T5.1 (ssRNA)
RNA: B1 RNA with C27A, U29A
B10: Ib_S4_P5E.1_K5.1_C5.1_H5.1_A5.1_[T5C]_[A7T]_F5.1_T5.1 (ssRNA)
RNA: B1 RNA with C27A, A30U
B11: Ib_S4_P5E.1_K5.1_C5.1_H5.1_A5.1_[T5A]_[A7G]_F5.1_T5.1 (ssRNA)
RNA: B1 RNA with C27A, C28A, A30G
B12: Ib_S4_P5E.1_K5.1_C5.1_H5.1_A5.1_[T5A]_[A7T]_F5.1_T5.1 (ssRNA)
RNA: B1 RNA with C27A, C28A, A30U
B13: Ia_S4_P4E.1_K4.1_C4.1_H4.1_A4.1_[T7A]_F4.1_T4.1 (ssRNA)
RNA: B2 RNA with C30A
B14: Ic_S4_P5E.1_K5.1_C5.1_H5.1_A5.1_[T6G]_[A7C]_F5.1_T5.1 (ssRNA)
RNA: B1 RNA with C27A, C28U, U29G, A30C
B15: Ib_S4_P5E.1_K5.1_C5.1_H5.1_A5.1_[T6C]_[A7C]_F5.1_T5.1 (ssRNA)
RNA: B1 RNA with C27A, C28U, U29C, A30C
B16: Ib_S4_P5E.1_K5.1_C5.1_H5.1_A5.1_[T6A]_[A7G]_F5.1_T5.1 (ssRNA)
RNA: B1 RNA with C27A, C28U, U29A, A30G
B17: Ib_S4_P5E.1_K5.1_C5.1_H5.1_A5.1_[T6A]_[A7C]_F5.1_T5.1 (ssRNA)
RNA: B1 RNA with C27A, C28U, U29A, A30C
B18: Ia_S4_P5E.1_K5.1_C5.1_H5.1_A5.1_F5.1_[T8A]_T5.1 (ssRNA)
RNA: B1 RNA with C27A, C28U, U31A
B19: Ia_S4_P5E.1_K5.1_C5.1_H5.1_A5.1_F5.1_[T9C]_T5.1 (ssRNA)
RNA: B1 RNA with C27A, C28U, U32C
B20: Ia_S4_P5E.1_K5.1_C5.1_H5.1_A5.1_F5.1_[T9A]_T5.1 (ssRNA)
RNA: B1 RNA with C27A, C28U, U32A
B21: Ic_S4_P5E.1_K5.1_C5.1_H5.1_A5.1_F5.1_[A10G]_T5.1 (ssRNA)
RNA: B1 RNA with C27A, C28U, A33G

Target: T1, PUF4 RNA-binding domain
Test: Mg; RNA-MaP; 20 mM Na-HEPES pH 7.4, 30 mM KOAc, 0.75 mM MgCl2, 0.1% Tween-20, 5% glycerol, 0.1 mg/mL BSA, 2 mM DTT; 25 C; 0.0125-409.6 nM protein
Settings: tags: N-His6-TEV cleaved; C-SNAP kept, Cy3B-labelled; label: tethered on chip by stalled RNA polymerase

| Binder | Kd [nM] |
| --- | --- |
| B1 | 19.9 |
| B2 | 0.515 |
| B3 | 5.86 |
| B4 | 5.86 |
| B5 | 16 |
| B6 | 112 |
| B7 | 83.8 |
| B8 | 1.7 |
| B9 | 3.97 |
| B10 | 1.71 |
| B11 | 15.3 |
| B12 | 5.23 |
| B13 | 1.23 |
| B14 | 12.5 |
| B15 | 4.55 |
| B16 | 10.7 |
| B17 | 2.42 |
| UCUCUUUGUAGCGUUCUCUU (ssRNA) [Ic_S1_P3E.1_K3.1_C3.1_H3.1_A3.1_[T5G]_[A6C]_F3.1_[T7G]_[A8T]_T3.1] | 1510 |
| UCUCUUUGUAGCCGUCUCUU (ssRNA) [Ic_S1_P3E.1_K3.1_C3.1_H3.1_A3.1_[T5G]_[A6C]_F3.1_[T7C]_[A8G]_T3.1] | > 2300 |
| UCUCUUUGUAGCCAUCUCUU (ssRNA) [Ic_S1_P3E.1_K3.1_C3.1_H3.1_A3.1_[T5G]_[A6C]_F3.1_[T7C]_T3.1] | 1850 |
| UCUCUUUGUAGCAGUCUCUU (ssRNA) [Ic_S1_P3E.1_K3.1_C3.1_H3.1_A3.1_[T5G]_[A6C]_F3.1_[T7A]_[A8G]_T3.1] | 1740 |

| Binder | Kd [nM] |
| --- | --- |
| UCUCUUUGUAGCAUUCUCUU (ssRNA) [Ic_S1_P3E.1_K3.1_C3.1_H3.1_A3.1_[T5G]_[A6C]_F3.1_[T7A]_[A8T]_T3.1] | 42.4 |
| UCUCUUUGUAGCAAUCUCUU (ssRNA) [Ic_S1_P3E.1_K3.1_C3.1_H3.1_A3.1_[T5G]_[A6C]_F3.1_[T7A]_T3.1] | 1060 |
| B18 | 6.15 |
| UCUCUUUGUAGCUGUCUCUU (ssRNA) [Ic_S1_P3E.1_K3.1_C3.1_H3.1_A3.1_[T5G]_[A6C]_F3.1_[A8G]_T3.1] | 864 |
| UCUCUUUGUAGCUCUCUCUU (ssRNA) [Ic_S1_P3E.1_K3.1_C3.1_H3.1_A3.1_[T5G]_[A6C]_F3.1_[A8C]_T3.1] | > 2300 |
| UCUCUUUGUAGCUUUCUCUU (ssRNA) [Ic_S1_P3E.1_K3.1_C3.1_H3.1_A3.1_[T5G]_[A6C]_F3.1_[A8T]_T3.1] | 296 |
| UCUCUUUGUAGUGCUCUCUU (ssRNA) [Ic_S1_P3E.1_K3.1_C3.1_H3.1_A3.1_[T5G]_[A6T]_F3.1_[T7G]_[A8C]_T3.1] | > 2300 |
| UCUCUUUGUAGUGUUCUCUU (ssRNA) [Ic_S1_P3E.1_K3.1_C3.1_H3.1_A3.1_[T5G]_[A6T]_F3.1_[T7G]_[A8T]_T3.1] | 659 |
| UCUCUUUGUAGUCGUCUCUU (ssRNA) [Ic_S1_P3E.1_K3.1_C3.1_H3.1_A3.1_[T5G]_[A6T]_F3.1_[T7C]_[A8G]_T3.1] | > 2300 |
| UCUCUUUGUAGUCCUCUCUU (ssRNA) [Ic_S1_P3E.1_K3.1_C3.1_H3.1_A3.1_[T5G]_[A6T]_F3.1_[T7C]_[A8C]_T3.1] | 2000 |
| UCUCUUUGUAGUCUUCUCUU (ssRNA) [Ic_S1_P3E.1_K3.1_C3.1_H3.1_A3.1_[T5G]_[A6T]_F3.1_[T7C]_[A8T]_T3.1] | 513 |
| UCUCUUUGUAGUCAUCUCUU (ssRNA) [Ic_S1_P3E.1_K3.1_C3.1_H3.1_A3.1_[T5G]_[A6T]_F3.1_[T7C]_T3.1] | 2020 |
| UCUCUUUGUAGUACUCUCUU (ssRNA) [Ic_S1_P3E.1_K3.1_C3.1_H3.1_A3.1_[T5G]_[A6T]_F3.1_[T7A]_[A8C]_T3.1] | 1210 |
| B19 | 72 |
| UCUCUUUGUAGUAUUCUCUU (ssRNA) [Ic_S1_P3E.1_K3.1_C3.1_H3.1_A3.1_[T5G]_[A6T]_F3.1_[T7A]_[A8T]_T3.1] | 86.2 |
| UCUCUUUGUAGUAAUCUCUU (ssRNA) [Ic_S1_P3E.1_K3.1_C3.1_H3.1_A3.1_[T5G]_[A6T]_F3.1_[T7A]_T3.1] | 1270 |
| UCUCUUUGUAGUUGUCUCUU (ssRNA) [Ic_S1_P3E.1_K3.1_C3.1_H3.1_A3.1_[T5G]_[A6T]_F3.1_[A8G]_T3.1] | 1680 |
| UCUCUUUGUAGUUUUCUCUU (ssRNA) [Ic_S1_P3E.1_K3.1_C3.1_H3.1_A3.1_[T5G]_[A6T]_F3.1_[A8T]_T3.1] | 403 |
| UCUCUUUGUACGGCUCUCUU (ssRNA) [Ic_S1_P3E.1_K3.1_C3.1_H3.1_A3.1_[T5C]_[A6G]_F3.1_[T7G]_[A8C]_T3.1] | 1730 |
| UCUCUUUGUACGGUUCUCUU (ssRNA) [Ic_S1_P3E.1_K3.1_C3.1_H3.1_A3.1_[T5C]_[A6G]_F3.1_[T7G]_[A8T]_T3.1] | 385 |
| UCUCUUUGUACGCCUCUCUU (ssRNA) [Ic_S1_P3E.1_K3.1_C3.1_H3.1_A3.1_[T5C]_[A6G]_F3.1_[T7C]_[A8C]_T3.1] | 719 |

| Binder | Kd [nM] |
| --- | --- |
| UCUCUUUGUACGCUUCUCUU (ssRNA) [Ic_S1_P3E.1_K3.1_C3.1_H3.1_A3.1_[T5C]_[A6G]_F3.1_[T7C]_[A8T]_T3.1] | 62.7 |
| UCUCUUUGUACGCAUCUCUU (ssRNA) [Ic_S1_P3E.1_K3.1_C3.1_H3.1_A3.1_[T5C]_[A6G]_F3.1_[T7C]_T3.1] | 872 |
| UCUCUUUGUACGAUUCUCUU (ssRNA) [Ic_S1_P3E.1_K3.1_C3.1_H3.1_A3.1_[T5C]_[A6G]_F3.1_[T7A]_[A8T]_T3.1] | 29.9 |
| B20 | 2.07 |
| UCUCUUUGUACGAAUCUCUU (ssRNA) [Ic_S1_P3E.1_K3.1_C3.1_H3.1_A3.1_[T5C]_[A6G]_F3.1_[T7A]_T3.1] | 891 |
| UCUCUUUGUACGUGUCUCUU (ssRNA) [Ic_S1_P3E.1_K3.1_C3.1_H3.1_A3.1_[T5C]_[A6G]_F3.1_[A8G]_T3.1] | 492 |
| UCUCUUUGUACGUUUCUCUU (ssRNA) [Ic_S1_P3E.1_K3.1_C3.1_H3.1_A3.1_[T5C]_[A6G]_F3.1_[A8T]_T3.1] | 40.7 |
| UCUCUUUGUACCGCUCUCUU (ssRNA) [Ic_S1_P3E.1_K3.1_C3.1_H3.1_A3.1_[T5C]_[A6C]_F3.1_[T7G]_[A8C]_T3.1] | 989 |
| UCUCUUUGUACCGUUCUCUU (ssRNA) [Ic_S1_P3E.1_K3.1_C3.1_H3.1_A3.1_[T5C]_[A6C]_F3.1_[T7G]_[A8T]_T3.1] | 391 |
| UCUCUUUGUACCCCUCUCUU (ssRNA) [Ic_S1_P3E.1_K3.1_C3.1_H3.1_A3.1_[T5C]_[A6C]_F3.1_[T7C]_[A8C]_T3.1] | 953 |
| UCUCUUUGUACCCUUCUCUU (ssRNA) [Ic_S1_P3E.1_K3.1_C3.1_H3.1_A3.1_[T5C]_[A6C]_F3.1_[T7C]_[A8T]_T3.1] | 59.5 |
| UCUCUUUGUACCCAUCUCUU (ssRNA) [Ic_S1_P3E.1_K3.1_C3.1_H3.1_A3.1_[T5C]_[A6C]_F3.1_[T7C]_T3.1] | 429 |
| UCUCUUUGUACCACUCUCUU (ssRNA) [Ic_S1_P3E.1_K3.1_C3.1_H3.1_A3.1_[T5C]_[A6C]_F3.1_[T7A]_[A8C]_T3.1] | 192 |
| UCUCUUUGUACCAUUCUCUU (ssRNA) [Ic_S1_P3E.1_K3.1_C3.1_H3.1_A3.1_[T5C]_[A6C]_F3.1_[T7A]_[A8T]_T3.1] | 8.04 |
| B21 | 11.8 |
| UCUCUUUGUACCUGUCUCUU (ssRNA) [Ic_S1_P3E.1_K3.1_C3.1_H3.1_A3.1_[T5C]_[A6C]_F3.1_[A8G]_T3.1] | 115 |
| UCUCUUUGUACCUCUCUCUU (ssRNA) [Ic_S1_P3E.1_K3.1_C3.1_H3.1_A3.1_[T5C]_[A6C]_F3.1_[A8C]_T3.1] | 157 |
| UCUCUUUGUACCUUUCUCUU (ssRNA) [Ic_S1_P3E.1_K3.1_C3.1_H3.1_A3.1_[T5C]_[A6C]_F3.1_[A8T]_T3.1] | 34 |
| UCUCUUUGUACUGGUCUCUU (ssRNA) [Ic_S1_P3E.1_K3.1_C3.1_H3.1_A3.1_[T5C]_[A6T]_F3.1_[T7G]_[A8G]_T3.1] | 1060 |

Reference: PMC9352680, “A comprehensive thermodynamic model for RNA binding by the Saccharomyces cerevisiae Pumilio protein PUF4”
